EC50 and Max effect/effect 1 µM data for 8 molecules are collected here from patent US20250171562A1.

B1: NIgG4F1A1(G4S)1 (Fc fusion)
chain 1: DVQLQESGGGLVQAGGSLKLSCAASGGSLSRYDMGWFRQAPGKEREFVARISWSGTTKYYADAVKGRFAISRDNAKNTVYLQMNSLKPEDTAVYYCAAAFYGNRGYYDVNAYTSSGQGTQVTVSGGGGSGPPCPPCPAPEFLGGPSVFLFPPKPKDTLMISRTPEVTCVVVDVSQEDPEVQFNWYVDGVEVHNAKTKPREEQFNSTYRVVSVLTVLHQDWLNGKEYKCKVSNKGLPSSIEKTISKAKGQPREPQVYTLPPCQEEMTKNQVSLWCLVKGFYPSDIAVEWESNGQPENNYKTTPPVLDSDGSFFLYSRLTVDKSRWQEGNVFSCSVMHEALHNHYTQKSLSLSLGK
chain 2: EVQLLESGGGLVQPGGSLRLSCAASGFTFGNYDMAWVRQAPGKRPEWVSSIDTGGDITHYADSVKGRFTISRDNAKNTLYLQMNSLRPEDTAVYWCATDEEYALGPNEFDYYGQGTLVTVSSGGGGSGPPCPPCPAPEFLGGPSVFLFPPKPKDTLMISRTPEVTCVVVDVSQEDPEVQFNWYVDGVEVHNAKTKPREEQFNSTYRVVSVLTVLHQDWLNGKEYKCKVSNKGLPSSIEKTISKAKGQPREPQVCTLPPSQEEMTKNQVSLSCAVKGFYPSDIAVEWESNGQPENNYKTTPPVLDSDGSFFLVSRLTVDKSRWQEGNVFSCSVMHEALHNHYTQKSLSLSLGK
B2: NIgG4F1A1(G4S)3 (Fc fusion)
chain 1: DVQLQESGGGLVQAGGSLKLSCAASGGSLSRYDMGWFRQAPGKEREFVARISWSGTTKYYADAVKGRFAISRDNAKNTVYLQMNSLKPEDTAVYYCAAAFYGNRGYYDVNAYTSSGQGTQVTVSGGGGSGGGGSGGGGSGPPCPPCPAPEFLGGPSVFLFPPKPKDTLMISRTPEVTCVVVDVSQEDPEVQFNWYVDGVEVHNAKTKPREEQFNSTYRVVSVLTVLHQDWLNGKEYKCKVSNKGLPSSIEKTISKAKGQPREPQVYTLPPCQEEMTKNQVSLWCLVKGFYPSDIAVEWESNGQPENNYKTTPPVLDSDGSFFLYSRLTVDKSRWQEGNVFSCSVMHEALHNHYTQKSLSLSLGK
chain 2: EVQLLESGGGLVQPGGSLRLSCAASGFTFGNYDMAWVRQAPGKRPEWVSSIDTGGDITHYADSVKGRFTISRDNAKNTLYLQMNSLRPEDTAVYWCATDEEYALGPNEFDYYGQGTLVTVSSGGGGSGGGGSGGGGSGPPCPPCPAPEFLGGPSVFLFPPKPKDTLMISRTPEVTCVVVDVSQEDPEVQFNWYVDGVEVHNAKTKPREEQFNSTYRVVSVLTVLHQDWLNGKEYKCKVSNKGLPSSIEKTISKAKGQPREPQVCTLPPSQEEMTKNQVSLSCAVKGFYPSDIAVEWESNGQPENNYKTTPPVLDSDGSFFLVSRLTVDKSRWQEGNVFSCSVMHEALHNHYTQKSLSLSLGK
B3: CIgG4E4A1(G4S)2 (Fc fusion)
chain 1: GPPCPPCPAPEFLGGPSVFLFPPKPKDTLMISRTPEVTCVVVDVSQEDPEVQFNWYVDGVEVHNAKTKPREEQFNSTYRVVSVLTVLHQDWLNGKEYKCKVSNKGLPSSIEKTISKAKGQPREPQVYTLPPCQEEMTKNQVSLWCLVKGFYPSDIAVEWESNGQPENNYKTTPPVLDSDGSFFLYSRLTVDKSRWQEGNVFSCSVMHEALHNHYTQKSLSLSLGKGGGGSGGGGSDVQLQESGGGLVQPGGSLRLSCAASGFRFSNYAMRWYRQAPGKEREFVARISSTGFITRYTASVRDRFTISRDNDKNMMYLQLNKLTPQDTAHYYCNAESTDYWGQGTQVTVS
chain 2: GPPCPPCPAPEFLGGPSVFLFPPKPKDTLMISRTPEVTCVVVDVSQEDPEVQFNWYVDGVEVHNAKTKPREEQFNSTYRVVSVLTVLHQDWLNGKEYKCKVSNKGLPSSIEKTISKAKGQPREPQVCTLPPSQEEMTKNQVSLSCAVKGFYPSDIAVEWESNGQPENNYKTTPPVLDSDGSFFLVSRLTVDKSRWQEGNVFSCSVMHEALHNHYTQKSLSLSLGKGGGGSGGGGSEVQLLESGGGLVQPGGSLRLSCAASGFTFGNYDMAWVRQAPGKRPEWVSSIDTGGDITHYADSVKGRFTISRDNAKNTLYLQMNSLRPEDTAVYWCATDEEYALGPNEFDYYGQGTLVTVSS
B4: CIgG4E4A1(G4S)3 (Fc fusion)
chain 1: GPPCPPCPAPEFLGGPSVFLFPPKPKDTLMISRTPEVTCVVVDVSQEDPEVQFNWYVDGVEVHNAKTKPREEQFNSTYRVVSVLTVLHQDWLNGKEYKCKVSNKGLPSSIEKTISKAKGQPREPQVYTLPPCQEEMTKNQVSLWCLVKGFYPSDIAVEWESNGQPENNYKTTPPVLDSDGSFFLYSRLTVDKSRWQEGNVFSCSVMHEALHNHYTQKSLSLSLGKGGGGSGGGGSGGGGSDVQLQESGGGLVQPGGSLRLSCAASGFRFSNYAMRWYRQAPGKEREFVARISSTGFITRYTASVRDRFTISRDNDKNMMYLQLNKLTPQDTAHYYCNAESTDYWGQGTQVTVS
chain 2: GPPCPPCPAPEFLGGPSVFLFPPKPKDTLMISRTPEVTCVVVDVSQEDPEVQFNWYVDGVEVHNAKTKPREEQFNSTYRVVSVLTVLHQDWLNGKEYKCKVSNKGLPSSIEKTISKAKGQPREPQVCTLPPSQEEMTKNQVSLSCAVKGFYPSDIAVEWESNGQPENNYKTTPPVLDSDGSFFLVSRLTVDKSRWQEGNVFSCSVMHEALHNHYTQKSLSLSLGKGGGGSGGGGSGGGGSEVQLLESGGGLVQPGGSLRLSCAASGFTFGNYDMAWVRQAPGKRPEWVSSIDTGGDITHYADSVKGRFTISRDNAKNTLYLQMNSLRPEDTAVYWCATDEEYALGPNEFDYYGQGTLVTVSS
B5: NIgG4F1A1(G4S)2 (Fc fusion)
chain 1: DVQLQESGGGLVQAGGSLKLSCAASGGSLSRYDMGWFRQAPGKEREFVARISWSGTTKYYADAVKGRFAISRDNAKNTVYLQMNSLKPEDTAVYYCAAAFYGNRGYYDVNAYTSSGQGTQVTVSGGGGSGGGGSGPPCPPCPAPEFLGGPSVFLFPPKPKDTLMISRTPEVTCVVVDVSQEDPEVQFNWYVDGVEVHNAKTKPREEQFNSTYRVVSVLTVLHQDWLNGKEYKCKVSNKGLPSSIEKTISKAKGQPREPQVYTLPPCQEEMTKNQVSLWCLVKGFYPSDIAVEWESNGQPENNYKTTPPVLDSDGSFFLYSRLTVDKSRWQEGNVFSCSVMHEALHNHYTQKSLSLSLGK
chain 2: EVQLLESGGGLVQPGGSLRLSCAASGFTFGNYDMAWVRQAPGKRPEWVSSIDTGGDITHYADSVKGRFTISRDNAKNTLYLQMNSLRPEDTAVYWCATDEEYALGPNEFDYYGQGTLVTVSSGGGGSGGGGSGPPCPPCPAPEFLGGPSVFLFPPKPKDTLMISRTPEVTCVVVDVSQEDPEVQFNWYVDGVEVHNAKTKPREEQFNSTYRVVSVLTVLHQDWLNGKEYKCKVSNKGLPSSIEKTISKAKGQPREPQVCTLPPSQEEMTKNQVSLSCAVKGFYPSDIAVEWESNGQPENNYKTTPPVLDSDGSFFLVSRLTVDKSRWQEGNVFSCSVMHEALHNHYTQKSLSLSLGK
B6: CIgG4E4A1(G4S)1 (Fc fusion)
chain 1: GPPCPPCPAPEFLGGPSVFLFPPKPKDTLMISRTPEVTCVVVDVSQEDPEVQFNWYVDGVEVHNAKTKPREEQFNSTYRVVSVLTVLHQDWLNGKEYKCKVSNKGLPSSIEKTISKAKGQPREPQVYTLPPCQEEMTKNQVSLWCLVKGFYPSDIAVEWESNGQPENNYKTTPPVLDSDGSFFLYSRLTVDKSRWQEGNVFSCSVMHEALHNHYTQKSLSLSLGKGGGGSDVQLQESGGGLVQPGGSLRLSCAASGFRFSNYAMRWYRQAPGKEREFVARISSTGFITRYTASVRDRFTISRDNDKNMMYLQLNKLTPQDTAHYYCNAESTDYWGQGTQVTVS
chain 2: GPPCPPCPAPEFLGGPSVFLFPPKPKDTLMISRTPEVTCVVVDVSQEDPEVQFNWYVDGVEVHNAKTKPREEQFNSTYRVVSVLTVLHQDWLNGKEYKCKVSNKGLPSSIEKTISKAKGQPREPQVCTLPPSQEEMTKNQVSLSCAVKGFYPSDIAVEWESNGQPENNYKTTPPVLDSDGSFFLVSRLTVDKSRWQEGNVFSCSVMHEALHNHYTQKSLSLSLGKGGGGSEVQLLESGGGLVQPGGSLRLSCAASGFTFGNYDMAWVRQAPGKRPEWVSSIDTGGDITHYADSVKGRFTISRDNAKNTLYLQMNSLRPEDTAVYWCATDEEYALGPNEFDYYGQGTLVTVSS
B7: CIgG4F1A1(RS) (Fc fusion)
chain 1: GPPCPPCPAPEFLGGPSVFLFPPKPKDTLMISRTPEVTCVVVDVSQEDPEVQFNWYVDGVEVHNAKTKPREEQFNSTYRVVSVLTVLHQDWLNGKEYKCKVSNKGLPSSIEKTISKAKGQPREPQVYTLPPCQEEMTKNQVSLWCLVKGFYPSDIAVEWESNGQPENNYKTTPPVLDSDGSFFLYSRLTVDKSRWQEGNVFSCSVMHEALHNHYTQKSLSLSLGKRSDVQLQESGGGLVQAGGSLKLSCAASGGSLSRYDMGWFRQAPGKEREFVARISWSGTTKYYADAVKGRFAISRDNAKNTVYLQMNSLKPEDTAVYYCAAAFYGNRGYYDVNAYTSSGQGTQVTVS
chain 2: GPPCPPCPAPEFLGGPSVFLFPPKPKDTLMISRTPEVTCVVVDVSQEDPEVQFNWYVDGVEVHNAKTKPREEQFNSTYRVVSVLTVLHQDWLNGKEYKCKVSNKGLPSSIEKTISKAKGQPREPQVCTLPPSQEEMTKNQVSLSCAVKGFYPSDIAVEWESNGQPENNYKTTPPVLDSDGSFFLVSRLTVDKSRWQEGNVFSCSVMHEALHNHYTQKSLSLSLGKRSEVQLLESGGGLVQPGGSLRLSCAASGFTFGNYDMAWVRQAPGKRPEWVSSIDTGGDITHYADSVKGRFTISRDNAKNTLYLQMNSLRPEDTAVYWCATDEEYALGPNEFDYYGQGTLVTVSS
B8: NIgG4F1A1(RS) (Fc fusion)
chain 1: DVQLQESGGGLVQAGGSLKLSCAASGGSLSRYDMGWFRQAPGKEREFVARISWSGTTKYYADAVKGRFAISRDNAKNTVYLQMNSLKPEDTAVYYCAAAFYGNRGYYDVNAYTSSGQGTQVTVSRSGPPCPPCPAPEFLGGPSVFLFPPKPKDTLMISRTPEVTCVVVDVSQEDPEVQFNWYVDGVEVHNAKTKPREEQFNSTYRVVSVLTVLHQDWLNGKEYKCKVSNKGLPSSIEKTISKAKGQPREPQVYTLPPCQEEMTKNQVSLWCLVKGFYPSDIAVEWESNGQPENNYKTTPPVLDSDGSFFLYSRLTVDKSRWQEGNVFSCSVMHEALHNHYTQKSLSLSLGK
chain 2: EVQLLESGGGLVQPGGSLRLSCAASGFTFGNYDMAWVRQAPGKRPEWVSSIDTGGDITHYADSVKGRFTISRDNAKNTLYLQMNSLRPEDTAVYWCATDEEYALGPNEFDYYGQGTLVTVSSRSGPPCPPCPAPEFLGGPSVFLFPPKPKDTLMISRTPEVTCVVVDVSQEDPEVQFNWYVDGVEVHNAKTKPREEQFNSTYRVVSVLTVLHQDWLNGKEYKCKVSNKGLPSSIEKTISKAKGQPREPQVCTLPPSQEEMTKNQVSLSCAVKGFYPSDIAVEWESNGQPENNYKTTPPVLDSDGSFFLVSRLTVDKSRWQEGNVFSCSVMHEALHNHYTQKSLSLSLGK

The target of this assay is mixture of three Der p 2 specific recombinant human IgE clones H10, H12, P4E (human) (UniProt P01854). Nature of the assay: RBL-SX38 IgE displacement, FACS.
Chain of mixture of three Der p 2 specific recombinant human IgE clones H10, H12, P4E (human) (P01854 other isoform, or with tags, fused parts or gaps): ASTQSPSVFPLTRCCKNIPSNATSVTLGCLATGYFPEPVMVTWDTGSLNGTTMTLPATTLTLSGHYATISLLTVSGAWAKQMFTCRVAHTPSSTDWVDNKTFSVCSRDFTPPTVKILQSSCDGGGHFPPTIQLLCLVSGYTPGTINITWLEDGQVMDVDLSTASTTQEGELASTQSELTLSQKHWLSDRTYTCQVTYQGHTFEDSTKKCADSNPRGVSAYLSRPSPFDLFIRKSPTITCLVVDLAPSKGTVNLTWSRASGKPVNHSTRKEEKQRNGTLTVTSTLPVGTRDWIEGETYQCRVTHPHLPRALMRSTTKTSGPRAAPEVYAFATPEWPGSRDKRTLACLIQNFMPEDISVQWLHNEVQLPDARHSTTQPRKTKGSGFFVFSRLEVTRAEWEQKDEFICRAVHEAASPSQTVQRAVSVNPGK
Regarding B1, the EC50 came out at 2.6 nM and the Max effect/effect 1 µM stood at 92%. For the molecule B2, the 50% effective concentration (EC50) is 35.5 nM and the Max effect/effect 1 µM worked out at 92%.

Consider B3, for which the EC50 is 107 nM and the Max effect/effect 1 µM stood at 94%. As for B4, the EC50 was determined as 31.6 nM and the Max effect/effect 1 µM is 98%.

Take B5: the EC50 was 2.1 nM and the Max effect/effect 1 µM was 95%. For B6 the same measures were 242 nM and 87%.

For B7, the Max effect/effect 1 µM was 0%.

B8: the EC50 is 3.5 nM and the Max effect/effect 1 µM came to 88%.

As usually defined, the EC50 is the concentration at which the effect is half-maximal.
